In doi:10.1101/2021.12.29.474402:

Target: SARS-CoV-2 Omicron (B.1.1.529) spike, prefusion-stabilized soluble trimeric ectodomain (S-trimer) (SARS-CoV-2 | bacteriophage T4) (UniProt P0DTC2)
Assay: cryo-EM structure

Chain of human ACE2 (Q9BYF1 19-612): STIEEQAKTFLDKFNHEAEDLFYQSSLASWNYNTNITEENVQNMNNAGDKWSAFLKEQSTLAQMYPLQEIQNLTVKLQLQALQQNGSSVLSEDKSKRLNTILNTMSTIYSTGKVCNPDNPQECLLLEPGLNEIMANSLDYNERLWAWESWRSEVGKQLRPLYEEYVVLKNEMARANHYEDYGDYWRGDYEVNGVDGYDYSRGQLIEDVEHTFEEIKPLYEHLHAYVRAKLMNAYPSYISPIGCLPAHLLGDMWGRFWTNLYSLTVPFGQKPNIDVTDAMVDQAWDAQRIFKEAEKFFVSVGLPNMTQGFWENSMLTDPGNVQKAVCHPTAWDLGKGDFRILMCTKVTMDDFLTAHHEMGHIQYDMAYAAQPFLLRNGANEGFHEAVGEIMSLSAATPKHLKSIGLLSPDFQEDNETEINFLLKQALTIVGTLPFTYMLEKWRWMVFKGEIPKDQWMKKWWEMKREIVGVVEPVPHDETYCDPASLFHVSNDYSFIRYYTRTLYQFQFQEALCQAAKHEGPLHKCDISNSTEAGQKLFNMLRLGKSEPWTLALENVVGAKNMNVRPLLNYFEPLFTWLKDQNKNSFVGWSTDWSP

“human ACE2 (from UniProt Q9BYF1) (receptor)” gave a stoichiometry N (ACE2 per S-trimer) of 2.
